{"source": "the supplement of paper PMC9112550", "about": "“Optimization of the antimicrobial peptide Bac7 by deep mutational scanning” (BMC Biology, 2022);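 note: peptides expressed intracellularly from a pBAD plasmid library in pooled LB shake-flask culture, induced with 0.3% L-arabinose, DNA abundance read by NGS, three biological replicates, DESeq2 with apeglm shrinkage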", "data": [{"system": "Escherichia coli TOP10", "assay": "shrunken log2 fold change of peptide-encoding DNA abundance (4.5 h post-induction vs induction); higher = less antimicrobial activity (less host growth inhibition)", "details": "time post-induction: 4.5 h; library: site-saturation at positions 5, 18, 19, 20", "values": [{"sequence": "RRIRGRPPRLPRPRPRPASSPRP", "shrunken log2 fold change": 0.653}, {"sequence": "RRIRFRPPRLPRPRPRPSIPPRP", "shrunken log2 fold change": -0.602}, {"sequence": "RRIRSRPPRLPRPRPRPLAYPRP", "shrunken log2 fold change": 0.0208}, {"sequence": "RRIRVRPPRLPRPRPRPPHTPRP", "shrunken log2 fold change": 0.0516}, {"sequence": "RRIRTRPPRLPRPRPRPYNRPRP", "shrunken log2 fold change": -0.0176}, {"sequence": "RRIRRRPPRLPRPRPRPRIDPRP", "shrunken log2 fold change": -0.0185}, {"sequence": "RRIRDRPPRLPRPRPRPQPLPRP", "shrunken log2 fold change": 0.194}, {"sequence": "RRIRKRPPRLPRPRPRPMMYPRP", "shrunken log2 fold change": -0.00208}, {"sequence": "RRIRNRPPRLPRPRPRPHHNPRP", "shrunken log2 fold change": -0.869}, {"sequence": "RRIRSRPPRLPRPRPRPIPNPRP", "shrunken log2 fold change": -0.432}, {"sequence": "RRIRGRPPRLPRPRPRPCVGPRP", "shrunken log2 fold change": 0.729}, {"sequence": "RRIRERPPRLPRPRPRPQQQPRP", "shrunken log2 fold change": 0.00378}, {"sequence": "RRIRNRPPRLPRPRPRPTNTPRP", "shrunken log2 fold change": -0.34}, {"sequence": "RRIRFRPPRLPRPRPRPMSKPRP", "shrunken log2 fold change": -0.0951}, {"sequence": "RRIRRRPPRLPRPRPRPMRMPRP", "shrunken log2 fold change": 0.119}, {"sequence": "RRIRMRPPRLPRPRPRPSIKPRP", "shrunken log2 fold change": -0.0928}, {"sequence": "RRIRDRPPRLPRPRPRPLLMPRP", "shrunken log2 fold change": 0.359}, {"sequence": "RRIRFRPPRLPRPRPRPWIGPRP", "shrunken log2 fold change": -0.398}, {"sequence": "RRIRPRPPRLPRPRPRPWATPRP", "shrunken log2 fold change": -0.213}, {"sequence": "RRIRSRPPRLPRPRPRPMFWPRP", "shrunken log2 fold change": 0.332}, {"sequence": "RRIRSRPPRLPRPRPRPVNWPRP", "shrunken log2 fold change": 0.142}, {"sequence": "RRIRYRPPRLPRPRPRPFMLPRP", "shrunken log2 fold change": -1.19}, {"sequence": "RRIRWRPPRLPRPRPRPNCFPRP", "shrunken log2 fold change": -0.0571}, {"sequence": "RRIRHRPPRLPRPRPRPLLWPRP", "shrunken log2 fold change": 0.0832}, {"sequence": "RRIRHRPPRLPRPRPRPWDVPRP", "shrunken log2 fold change": -0.0319}, {"sequence": "RRIRVRPPRLPRPRPRPSGPPRP", "shrunken log2 fold change": -0.119}, {"sequence": "RRIRFRPPRLPRPRPRPGVMPRP", "shrunken log2 fold change": 0.238}, {"sequence": "RRIRIRPPRLPRPRPRPWWLPRP", "shrunken log2 fold change": -0.0152}, {"sequence": "RRIRERPPRLPRPRPRPIEHPRP", "shrunken log2 fold change": -0.00973}, {"sequence": "RRIRRRPPRLPRPRPRPKNCPRP", "shrunken log2 fold change": 0.0654}, {"sequence": "RRIRKRPPRLPRPRPRPHVGPRP", "shrunken log2 fold change": 0.176}, {"sequence": "RRIRWRPPRLPRPRPRPHILPRP", "shrunken log2 fold change": -0.358}, {"sequence": "RRIRFRPPRLPRPRPRPPKPPRP", "shrunken log2 fold change": 0.47}, {"sequence": "RRIRTRPPRLPRPRPRPHDDPRP", "shrunken log2 fold change": -0.0991}, {"sequence": "RRIRTRPPRLPRPRPRPAALPRP", "shrunken log2 fold change": 0.0806}, {"sequence": "RRIRFRPPRLPRPRPRPHERPRP", "shrunken log2 fold change": 0.0652}, {"sequence": "RRIRMRPPRLPRPRPRPRKKPRP", "shrunken log2 fold change": 1.43}, {"sequence": "RRIRVRPPRLPRPRPRPFSDPRP", "shrunken log2 fold change": -0.263}, {"sequence": "RRIRKRPPRLPRPRPRPMIEPRP", "shrunken log2 fold change": 0.0881}, {"sequence": "RRIRYRPPRLPRPRPRPEGQPRP", "shrunken log2 fold change": 0.0448}, {"sequence": "RRIRCRPPRLPRPRPRPDFNPRP", "shrunken log2 fold change": -0.242}, {"sequence": "RRIRHRPPRLPRPRPRPLRQPRP", "shrunken log2 fold change": -0.0125}, {"sequence": "RRIRHRPPRLPRPRPRPAHYPRP", "shrunken log2 fold change": -0.139}, {"sequence": "RRIRNRPPRLPRPRPRPENVPRP", "shrunken log2 fold change": -0.123}, {"sequence": "RRIRSRPPRLPRPRPRPNWWPRP", "shrunken log2 fold change": 0.022}, {"sequence": "RRIRYRPPRLPRPRPRPKYEPRP", "shrunken log2 fold change": -0.177}, {"sequence": "RRIRHRPPRLPRPRPRPLATPRP", "shrunken log2 fold change": -0.0931}, {"sequence": "RRIRWRPPRLPRPRPRPGCLPRP", "shrunken log2 fold change": 0.792}, {"sequence": "RRIRSRPPRLPRPRPRPEMWPRP", "shrunken log2 fold change": 0.67}, {"sequence": "RRIRRRPPRLPRPRPRPFCSPRP", "shrunken log2 fold change": -0.0439}, {"sequence": "RRIRCRPPRLPRPRPRPIREPRP", "shrunken log2 fold change": -0.0298}, {"sequence": "RRIRARPPRLPRPRPRPIMHPRP", "shrunken log2 fold change": -0.171}, {"sequence": "RRIRRRPPRLPRPRPRPNTGPRP", "shrunken log2 fold change": -0.121}, {"sequence": "RRIRERPPRLPRPRPRPCSHPRP", "shrunken log2 fold change": -0.0193}, {"sequence": "RRIRERPPRLPRPRPRPLPQPRP", "shrunken log2 fold change": -0.06}, {"sequence": "RRIRRRPPRLPRPRPRPWRMPRP", "shrunken log2 fold change": 0.00176}, {"sequence": "RRIRIRPPRLPRPRPRPPDDPRP", "shrunken log2 fold change": 0.494}, {"sequence": "RRIRFRPPRLPRPRPRPHIDPRP", "shrunken log2 fold change": -0.335}, {"sequence": "RRIRMRPPRLPRPRPRPTVYPRP", "shrunken log2 fold change": -0.0666}, {"sequence": "RRIRSRPPRLPRPRPRPNDTPRP", "shrunken log2 fold change": -0.437}, {"sequence": "RRIRYRPPRLPRPRPRPQMFPRP", "shrunken log2 fold change": -0.0885}, {"sequence": "RRIRMRPPRLPRPRPRPRVNPRP", "shrunken log2 fold change": 1.08}, {"sequence": "RRIRQRPPRLPRPRPRPEYPPRP", "shrunken log2 fold change": -0.22}, {"sequence": "RRIRLRPPRLPRPRPRPHFRPRP", "shrunken log2 fold change": -0.102}, {"sequence": "RRIRTRPPRLPRPRPRPMSHPRP", "shrunken log2 fold change": -0.238}, {"sequence": "RRIRMRPPRLPRPRPRPGTKPRP", "shrunken log2 fold change": 0.844}, {"sequence": "RRIRRRPPRLPRPRPRPGTCPRP", "shrunken log2 fold change": -0.087}, {"sequence": "RRIRWRPPRLPRPRPRPEENPRP", "shrunken log2 fold change": -0.0122}, {"sequence": "RRIRIRPPRLPRPRPRPFAFPRP", "shrunken log2 fold change": -0.155}, {"sequence": "RRIRPRPPRLPRPRPRPVIKPRP", "shrunken log2 fold change": -0.215}, {"sequence": "RRIRMRPPRLPRPRPRPHPSPRP", "shrunken log2 fold change": -0.127}, {"sequence": "RRIRQRPPRLPRPRPRPHGRPRP", "shrunken log2 fold change": -0.0154}, {"sequence": "RRIRHRPPRLPRPRPRPETLPRP", "shrunken log2 fold change": -0.18}, {"sequence": "RRIRCRPPRLPRPRPRPGFQPRP", "shrunken log2 fold change": -0.356}, {"sequence": "RRIRWRPPRLPRPRPRPDGIPRP", "shrunken log2 fold change": 0.151}, {"sequence": "RRIRVRPPRLPRPRPRPTGSPRP", "shrunken log2 fold change": -0.133}, {"sequence": "RRIRKRPPRLPRPRPRPWCRPRP", "shrunken log2 fold change": -0.189}, {"sequence": "RRIRARPPRLPRPRPRPMITPRP", "shrunken log2 fold change": 0.312}, {"sequence": "RRIRKRPPRLPRPRPRPCWNPRP", "shrunken log2 fold change": -0.228}]}]}
